Measured values from patent US20130004527A1.

Target: IgE in a panel of sera from 22 patients allergic to ragweed (human)
Test: competition ELISA; tested as AllerR mix with 22 sera

| highest concentration without competition [µM] | Binder |
| --- | --- |
| > 10 | VDAKLGTTRLTVSNSLFTQHQFVLLFGAGDENIEDRGMLATVAFNTFTDN [AllerR4.2] |
| > 10 | AllerR5 (peptide) peptide: TVAFNTFTDNVDQRMPRCRHGFFQVVNNNYDKWGSYAIGGSASPTILSQGNRFCAPDERSKKNVLGRHGE |
| > 10 | AllerR6 (peptide) peptide: VLGRHGEAAAESMKWNWRTNKDVLENGAIFVASGVDPVLTPEQSAGMIPAEPGESALSLTSSAGVLSCQPGA |
| > 10 | AllerR4.3 (peptide) peptide: MHDVKVNPGGLIKSNDGPAAPRAGSDGDAISISGSSQIWIDHCSLSKSVDGLVDAKLGTTR |

Further lines, the binder ahead of its results:

| Binder | highest concentration without competition [µM] |
| --- | --- |
| AllerR2 (peptide) peptide: DVANPKEGTLRFGAAQNRPLWIIFERDMVIRLDKEMVVNSDKTIDGRGAKVE | > 10 |
| AllerR1 (peptide) peptide: TSGAYNIIDGCWRGKADWAENRKALADCAQGFGKGTVGGKDGDIYTVTSELDDDVANPK | > 10 |
| TIDGRGAKVEIINAGFTLNGVKNVIIHNINMHDVKVNPGGLIK [AllerR3] | > 10 |
